In general, IC50 refers to the concentration that inhibits the measured activity by half. Lower therefore signals greater potency.

Neutralization IC50, IC50 and IC50 (µg/ml), pseudovirus neutralization data for five substances are collected here from patent US20240132578A1.

Experiment in all cases: cell-based or functional assay
Assay [1] has as its target HIV-1 92UG024 envelope (Env) on pseudovirus (HIV-1).
Assay [2] has as its target HIV-1 APV-17 envelope (Env) on pseudovirus (HIV-1).
Assay [3] addresses HIV-1 Env of pseudovirus MGRM-F1-006 (clade F) (HIV-1).
In assay [4] the target is HIV-1 Env of pseudovirus MGRM-G-013 (HIV-1).
The target in assay [5] is HIV-1 Env of pseudovirus MGRM-G-014 (HIV-1).
Assay [6] addresses HIV-1 MGRM-AG-008 Env (pseudovirus) (HIV-1).
The target in assay [7] is HIV-1 MGRM-G-006 Env (pseudovirus) (HIV-1).
The target of assay [8] is HIV-1 envelope glycoprotein (Env) of isolate MGRM-C-002 (HIV-1).
The target of assay [9] is HIV-1 envelope glycoprotein (Env) of isolate MGRM-C-015 (HIV-1).

1443_C16 (PG16) (TCN-116) (antibody), sequence (VH): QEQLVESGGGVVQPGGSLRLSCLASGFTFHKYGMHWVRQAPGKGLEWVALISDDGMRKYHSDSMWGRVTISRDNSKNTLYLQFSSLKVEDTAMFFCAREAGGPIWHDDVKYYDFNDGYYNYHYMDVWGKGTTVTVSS
1443_C16 (PG16) (TCN-116) (antibody), sequence (VL): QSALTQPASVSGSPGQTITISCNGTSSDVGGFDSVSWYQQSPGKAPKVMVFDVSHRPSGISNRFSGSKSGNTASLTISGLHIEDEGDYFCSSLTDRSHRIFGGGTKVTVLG

As for 1443_C16 (PG16) (TCN-116) (antibody), the neutralization IC50 in assay [1] and in [2] was greater than 50 µg/mL each time. Besides, the IC50 in [3] is 0.27 µg/mL. Further, the IC50 (µg/ml), pseudovirus neutralization in assay [4] was greater than 50 µg/mL; in assay [5], 6.98 µg/mL; in assay [6], 0.002 µg/mL; in assay [7], 2.42 µg/mL; in assay [8], 28.3 µg/mL; in assay [9] it was 0.26 µg/mL.
On to 4E10 (antibody), for which the neutralization IC50 in [1] stood at 1.32 µg/mL; in assay [2] it was 5.1 µg/mL. For the same substance, the IC50 in [3] was 1.01 µg/mL. In addition, the IC50 (µg/ml), pseudovirus neutralization in assay [4] came out at 1.15 µg/mL; in [5] it was 13.7 µg/mL; in [6], 1.48 µg/mL; in assay [7], 1.23 µg/mL; in assay [8], 18.2 µg/mL; in [9], 2.52 µg/mL.
On to 2F5 (antibody), for which the figures for the neutralization IC50 in assay [1] and in [2] were 1.27 µg/mL and 2 µg/mL, respectively. In assay [3], this substance gave an IC50 of 1.1 µg/mL. Moreover, the IC50 (µg/ml), pseudovirus neutralization in assay [4] was 0.59 µg/mL; in assay [5], 9.65 µg/mL; in assay [6], 0.54 µg/mL; in [7], 1.33 µg/mL; in assay [8], 44.7 µg/mL; in assay [9] it was greater than 50 µg/mL.
1495_C14 (PGC14) (antibody): the neutralization IC50 in assay [1] and in assay [2] was greater than 50 µg/mL each time. This substance returned a concentration for half-maximal inhibition (IC50) in assay [3] greater than 50 µg/mL. Moreover, the IC50 (µg/ml), pseudovirus neutralization was greater than 50 µg/mL in assay [4]; greater than 50 µg/mL in assay [5]; 45 µg/mL in [6]; greater than 50 µg/mL in assay [7]; greater than 50 µg/mL in assay [8]; greater than 50 µg/mL in assay [9].
Consider 2G12 (antibody), for which the neutralization IC50 in assay [1] was 0.59 µg/mL; in assay [2], greater than 50 µg/mL. Also, the half-inhibitory concentration (IC50) in assay [3] was greater than 50 µg/mL. Besides, the IC50 (µg/ml), pseudovirus neutralization in assay [4] was greater than 50 µg/mL; in [5] it was greater than 50 µg/mL; in assay [6], greater than 50 µg/mL; in [7], greater than 50 µg/mL; in assay [8], greater than 50 µg/mL; in assay [9] it was 1.75 µg/mL.
